Measurements: patent US20250136677A1 (ZOETIS SERVICES, published 2025)
Numbering of substitutions follows the chain as printed.

How the values were obtained:
[1] = target: T1, canine IL-31 protein (Canine_IL31) (canine); assay: SPR (Biacore), IL-31 protein as surface capture
T1 chain: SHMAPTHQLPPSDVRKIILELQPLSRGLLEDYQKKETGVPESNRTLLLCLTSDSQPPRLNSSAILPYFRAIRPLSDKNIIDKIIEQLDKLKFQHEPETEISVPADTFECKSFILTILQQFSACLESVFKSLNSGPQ

[2] = target: T2, wildtype feline IL-31 protein (Feline_IL31_wildtype) (feline); assay: cell-based or functional assay
T2 chain: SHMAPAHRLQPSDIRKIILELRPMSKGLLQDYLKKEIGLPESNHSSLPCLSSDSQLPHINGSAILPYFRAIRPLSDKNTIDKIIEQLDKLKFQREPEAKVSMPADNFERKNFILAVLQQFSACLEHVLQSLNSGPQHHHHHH

human IL-31 = target: T3, human IL-31 (human, UniProt Q6EBC2 24-164); assay: SPR (Biacore), IL-31 surface, single antibody concentration
T3 sequence: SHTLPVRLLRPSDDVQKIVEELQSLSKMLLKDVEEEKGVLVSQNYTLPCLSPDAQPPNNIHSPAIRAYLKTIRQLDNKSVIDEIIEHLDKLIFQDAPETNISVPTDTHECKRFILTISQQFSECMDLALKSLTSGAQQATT

[3] = target: T2, wildtype feline IL-31 protein …; assay: SPR (Biacore), IL-31 on chip, 1:1 fit
Outline: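 IL-31 was amine-coupled (NHS/EDC) to the chip at 5 μg/mL and quenched with ethanolamine, and candidate mAbs were flowed over it as analytes. Binding curves were fitted to a 1:1 model.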

[4] = target: T4, equine IL-31 protein (Equine_IL31) (equine); assay: SPR (Biacore), IL-31 protein as surface capture
T4 construct: Recombinant equine IL-31
T4 chain: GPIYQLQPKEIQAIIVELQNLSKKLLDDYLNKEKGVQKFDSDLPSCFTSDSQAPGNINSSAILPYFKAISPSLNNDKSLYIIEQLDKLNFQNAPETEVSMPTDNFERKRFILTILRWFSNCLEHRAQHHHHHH
Procedure: (§1) The affinity with which candidate mAbs bind canine and feline IL-31 was determined using surface plasmon resonance (SPR) on a Biacore system (Biocore Life Sciences (GE Healthcare), Uppsala, Sweden). To avoid affinity differences associated with differential surface preparation that can occur when immobilizing antibodies to surfaces; a strategy was employed where IL-31 was directly conjugated to the surface. Immobilization was obtained by amine coupling 5 μg/mL IL-31 using N-hydroxysuccinimide (NHS)/1-Ethyl-3-(3-dimethylaminopropyl) carbodiimide (EDC) chemistry. Chips were quenched with ethanolamine and the affinity with which all candidate mAbs bound to the immobilized IL-31 was evaluated. All curves were fit to a 1:1 model. […] Results for affinity measurements are described herein.
(§2) Table 1 below describes the results for biacore analysis using multiple species of IL-31 protein as a surface capture.

[5] = target: T2, wildtype feline IL-31 protein …; assay: SPR (Biacore), IL-31 protein as surface capture
Procedure: as §1, §2

[6] = target: T5, mutant feline IL-31 11E12 protein (Feline_IL31_11E12_mutant) (feline); assay: SPR (Biacore), IL-31 protein as surface capture
T5 construct: also called feline 11E12 mutant; 11E12 IL-31 mutant
T5 chain: T2 chain with D81A, I84A
Procedure: as §1, §2

[7] = target: T2, wildtype feline IL-31 protein …; assay: cell-based or functional assay
[8] = target: T1, canine IL-31 protein (Canine_IL31); assay: cell-based or functional assay

B1: mouse anti IL-31 antibody 15H05 (antibody, mouse IgG1, kappa)
heavy: QVQLQQSAAELARPGASVKMSCKTSGYTFTSYTIHWIKQRPGQGLEWIGNINPTSGYTENNQRFKDKTTLTVDRSSNTAYLQLHSLTSEDSAVYFCARWGFKYDGEWSFDVWGAGTTVTVSSKTTPPSVYPLAPGSAAQTNSMVTLGCLVKGYFPEPVTVTWNSGSLSSGVHTFPAVLESDLYTLSSSVTVPSSPRPSETVTCNVAHPASSTKVDKKIVPRDCGCKPCICTVPEVSSVFIFPPKPKDVLTITLTPKVTCVVVDISKDDPEVQFSWFVDDVEVHTAQTQPREEQFNSTFRSVSELPIMHQDWLNGKEFKCRVNSAAFPAPIEKTISKTKGRPKAPQVYTIPPPKEQMAKDKVSLTCMITDFFPEDITVEWQWNGQPAENYKNTQPIMNTNGSYFVYSKLNVQKSNWEAGNTFTCSVLHEGLHNHHTEKSLSHSPGK
light: DIQMNQSPSSLSASLGDTITVTCRASQGISIWLSWYQQKPGNIPKVLINKASNLHIGVPPRFSGSGSGTHFTLTITSLQPEDIATYYCLQSQTYPLTFGGGTKLEINADAAPTVSIFPPSSEQLTSGGASVVCFLNNFYPKDINVKWKIDGSERQNGVLNSWTDQDSKDSTYSMSSTLTLTKDEYERHNSYTCEATHKTSTSPIVKSFNRNEC
notes: Mouse hybridoma antibody, IgG1 kappa; also called Mu-15H05; MU-15H05
Question: With B1 as the binder, how does the Kd [1] read?
Answer: 1.91 pM

Question: And the “Inhibition of IL-31 induced pSTAT3 IC50 (µg/ml), Feline IL-31 on Feline FCWF-4 cells” value [2]?
Answer: 6 µg/ml

Question: Does B1 bind (human IL-31)?
Answer: no binding

Question: And the Kd [3]?
Answer: 0.348 nM

Question: What about the koff [3] of the same binder?
Answer: 1.69e-05 s⁻¹

Question: What about the kon [3] of the same binder?
Answer: 48400 M⁻¹ s⁻¹

Question: And the Kd [4]?
Answer: 0.306 nM

Question: What about the Kd [5] of the same binder?
Answer: 0.306 nM

Question: And the Kd [6]?
Answer: 11.5 nM

Question: What about the “IC50, inhibition of feline IL-31-induced STAT3 phosphorylation, canine DH82 cells” value [7] of the same binder?
Answer: 2.7 µg/mL

Question: And the “IC50, inhibition of feline IL-31-induced STAT3 phosphorylation, feline FCWF4 cells” value [7]?
Answer: 4.26 µg/mL

Question: What about the Inhibition of IL-31 induced pSTAT3 IC50 (µg/ml), Canine IL-31 on Canine DH82 cells [8] of the same binder?
Answer: 11.2 µg/ml
